This is an account of results in the nanobody polyreactivity screen of Harvey et al. (2022).

This data set is described as follows: yeast display, Sf9 membrane polyspecificity reagent, FACS + sequencing; frameworks hold sequencing errors. Summed up: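 Galactose-induced (36–48 hours) yeast carrying a synthetic nanobody display library were exposed to 10% biotinylated, detergent-solubilized Sf9 membrane reagent at 4 °C for 1 hour. FACS followed streptavidin microbead enrichment, using low and high (top ~1%) gates for expression (anti-HA) and reagent binding (streptavidin). Colony PCR, MiSeq 2 × 250 sequencing and CDR-length filtering followed. Labels for polyreactivity reflect the gate of origin.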
On to “QVQLVESGGGLVQAGGSLRLSCASSGPIFAYNAIPGYRQAPGKERELVADISSGGNTYYADSVKGRFTISRDNAKNTVYLQMNSLKPEDTAVYYCAADIAWYTHDHRIFDYWGQGTQVTVSS”, for which the “polyreactivity (PSR sort gate)” value is on record as “low polyreactivity”.

For “QVQLVESGGGLVQAGGSLRLSCAASGRTFYYYAMGWYRQAPGKERELVARISYSGSNTYYADSVKGRFTISRDNAKNTVYLQMNSLKPEETAVYYCAAGYLVWRDSATLDYWGQGTQVTVSS”, the “polyreactivity (PSR sort gate)” value was “high polyreactivity”. For “QVQLVESGGGLVQAGGSLRLSCAASGSTFLVYAMGWYRQAPGKEMEFVAAISWSGGSTFYADSVKGRFTISRDNAKNTVYLQMNSLKPVDTAVYYCAARQAGYSGRKLYYWGQGTQVTVSS” the value was “low polyreactivity”.

As for “QVQLVDSGGGLVQAGGSLRLSCAASGSTFDGNTMGWYRQAPGKERELVATITNSGGNTYYADSVKGRFTISRDNAKNTVYLQMNSLKPEDTAVYYCNARRTSWRRLGNFYYWGQGTQVTVSS”, the “polyreactivity (PSR sort gate)” value is “high polyreactivity”. The result for “QVQLVESGGGLVQAGGSLRLSCAASGRIFFTYTMGWYRQAPGKERELVAAITGGGARTYYADSVKGRFTISRDNSKNTVYLQMNSLKPEDTAVYYCAKGWQRIGFYYWGQGTQVTVSS” reads “high polyreactivity”; that for “QVQLVESGGGLVQAGGSLRLICAASGSIFYFYAMGWYREAPGKERELVAAIRYNGGSTYYADSVKGRFTISRDNAKNTVYLQMNSLKPEDTAVYYCAAGGFHYVYYRGMYYWGQGTQVTVSS”, “high polyreactivity”.

Turning to “QVQLVESGGGLVQAGGSLRLSCAASGSTFWYYDMGWYRQAPGKERELVAAITSGGRTNYADSVKGRFTISRDNAKNTVYLQMNSLKPEDTAVYYCNAVSYGKYVFQDGDYWGQGTQVTVSS”, the “polyreactivity (PSR sort gate)” value was “high polyreactivity”. For “QVQLVESGGGLVQAGGSLRLSCAASGRIFHRNAMGWYRQAPGQERELVARITRSGTSTYYADSVKGRFTISRDNAKNTVYLQMNSLKPEDTAVYYCAADNASPSLGEYNYWGQGTQVTVSS” the value was “low polyreactivity”; for “QVQIEESGGGLVQAGGSHRLSCAASGSTSYWYAMGWSRQAPRKERELVAAISSDDSTNYADSVKGRFTISRDNAKNTVYLQMNSLKPEDTAVYYFNREHYLIRYDYWGQGTQVTVSS”, “low polyreactivity”.

Take “QVQLVESGGGLVQAGGSLRLSCAASGSTLSRYVMGWYRRAAGKERELVAAISSSGGSTYYADSVKGRFTISRDNAKNTVYLQMNSLKPEDTADYYCNVDHWRRGRSDNYWGQGTQVTVSS”: the “polyreactivity (PSR sort gate)” value is recorded as “high polyreactivity”. Consider “QVQLVESGGGLVQAGGSLRLSCAASGSTFTSYAMGWYRQAPGKERELVAAISKSGGSTYYADSVKGRFTISRDNAKNTVYLQMNSLKPEDTAVYYCAKYIAYYGYVPSPWDHPGDDYWGQGTQVTVSS”, for which the “polyreactivity (PSR sort gate)” value is “low polyreactivity”. The result for “QVQLVESGGGLVQAGGSLRLSCAASGRIWWNAMGWYRPAPGNETELVAAIRWSGGITRYADSVKGRFTISRDNAKNTVDLQMHSLKPEDTAVYYCAARLGGSIRSKFDYWGQGTQVTVSS” reads “high polyreactivity”; that for “QVQLVESGGGLVQAGGSLRLSCAASGFIFFEYAMGWYRQAPGKERELVAAISWSDDTTYYADSVKGRFTISRDNAKNTVYLQMNSLNPEDTAVYYCNVRYWGFYDYDYWGQGSQVTVSS”, “low polyreactivity”. For “QVQHVESGGGLVQAGGSLRLSCAASGSIFQKNAMGWYRKAPGKERELVAVITRGGTSTYYADSVKGRFTISRDNAKNTVYLQMNSLKPEDTAVYYCAAKADKRLDYWGQGTQVTVSS” the value was “low polyreactivity”; for “QVQLVESGGGLVQAGGSLRLSCAASGGIFVTYAMGWYRQAPGKERELVAAITSGGTTYYADSVKGRFTISRDNAKNTVYLQMNSLKPEDTAVYYCAADPTNSYLEYDYWGQGTQVTVSS”, “low polyreactivity”; for “QDQLVESGGGLVQAGGSLRLSCAASGSIFTDYAMGWYRQAPAKERELVAAITSSGGSTYYADSVKGRFTISRDYAKNTVYLQMKSLKTEDTAVYYCAADRITIYDYWGQGTQVTVSS”, “low polyreactivity”.

As for “QLQLVESGGGLVQAGGSLRLSCAASGSIFRTNVMGWYRQAPGKERELVAAISRRGGSTYYADSVKGRFTISRDNAKNTVYLQMISLKPEDTAVYYCAASSSAYRDDYWGQGTQVTVSS”, the “polyreactivity (PSR sort gate)” value was “high polyreactivity”. Take “QVQLVESAGGLVQAGGSLRLSCAASGSIFNVYDMGWYRQAPGKERELVAAITWSGGRTYYADSVKGRFTISRDNAKNTVYLQMNSLKPEDTAVSSCSARRWWVKSWRRFDYWGQGTQVTVSS”: the “polyreactivity (PSR sort gate)” value was “high polyreactivity”. For “QVKLVESGGGLVQAGGSLRLSCAASGRIFRYYVMGWYRQAPGKERELVAAITSGGSTYYADSVKGRFTISRDNAKNTVYLQMNSLKPEDTAVYYCNVVGRYGSFRSAEMNYWGQGTQVTVSS”, the “polyreactivity (PSR sort gate)” value is on record as “high polyreactivity”. For “QVQLVESGGGLVQAGGSLRLSCAASGFIFYLNAMGWYRQAPGKERELVAAISRGGTTYYADSVKGRFTISRDNAKNTVYLQMNSLIPEDTAVYYCAAKDKRWYSRYYWTGYDYWGQGTQVTVSS” the value was “high polyreactivity”. Consider “QVQLVESGGGLVQAGGSLRLSCAASGRTFYGYTMGWYRQAPGKERELVAAISWTGGRTYYADSVKGRFTISRDNAKNTVYLQMNSLKPEDTAVYYCAARRYQSEDVPYGYWGQGTQVTVSS”, for which the “polyreactivity (PSR sort gate)” value is given as “high polyreactivity”. For “QVQLVESGGGLVQAGGSLRLSCAASGGIFGRYAMGWYRQAPGKERELVAGISYSGGSTYYADSVKGRFTISRDNAKNSVYLQMNSLKPEDTAVYYCATGGYVWYRSVNVWTRMDYWGQGTQVTVSS” the value was “high polyreactivity”; for “QVQLEESGGGLVQAGGSLRLSCAASGGTFDYYAMGWYRQAPRKERELVAVINWSGGRTYYADSVKGRFTISRDNAKNTVYLQMNSLKPEDTAVYYCAAQRPPGQTWNRDYWGQGTQVTVSS”, “high polyreactivity”. For “LVQVVESGGGLVQAGGSLGLSCAASGRIFRDYAMGWYRPATGKERELVAAISWSTVHTYYADSVKGRFTISRDNAKNTVYLQMNCLKPEDTAVYYCAVDRPGLTYYDYDYWGQGTQVTVSS” the value was “low polyreactivity”; for “QVQLVESGGGLVQAGGSLRLSCAASGRIFGYYAMGWYRPAPGKERELVAGISARGGSTYYADSVKGRFTISRDNAKNTVYLQMNSLKPEDTAVYYCNKTRHDWFRTDSIRESAEYDYWGQGTQVTVSS”, “low polyreactivity”. For “QVQLVESGGGLVQAGGSLRLSCAASGSIFYGYAMGWYRQAPGKERELVAAITDVGSTNYADSVKGRFTISRDNAKNTVYLQMNSLKPEDTAVYYCAADNYRRSSVDPFTDTMGYWGQGTQVTVSS”, the “polyreactivity (PSR sort gate)” value is listed as “low polyreactivity”. The result for “QVQLIESGGGLVQAGGSLRLSCAASGRTFGRYTMGWYRQAPGKERELVADISGTGGRTYYSDSVKGRFTISRDNAKNTVYLQMNSLKPEDTAVYYCNAVLHRRFDYWGQGTQVTVSS” reads “high polyreactivity”; that for “QVQLVESGGGLVQAGGSLRLSCAASGLTFYYYVMGWYRQAPGKERELVAAISYSGGRTYYADSVKGRFTISRDNAKNTVSLQMNSLKPEDTAVYYCAAQSRYGGKFYYWGQGTQVTVSS”, “high polyreactivity”.

As to “QVQLVESGGGLVQAGGSLSLRCADSGRTLWAYAMGGYREAAGNDRELVAAISASGGSTYYADSVKGRFTISRDIAKNTVYLQMNSLKPADTAVYYCRLVSKGRLYDYCGQGTQVTVSS”, the “polyreactivity (PSR sort gate)” value is reported as “high polyreactivity”.

Take “QVQLVESGGGLVQAGGSLRLSCAASGSILYPNAMGLYRQAPGKERELVAAISSSGGSTYYADSVKGRFTISRDNAKNTVYLQMNSLKPEDTAVYYCAADHYIPIYSKYDYWGQVTQVTVSS”: the “polyreactivity (PSR sort gate)” value is given as “high polyreactivity”.
